According to article PMC4980022:
Values joined by “and” are separate entries in the source; they are usually repeats but may differ in a detail not shown here. Identical values can stand only once.

What was measured:
[1] = biological target: PorK lipoprotein (Porphyromonas gingivalis W50 (endogenous in W50ABK*WbaP)); test: negative-stain electron microscopy and electron tomography; purified PorK/N complex (fraction 6 of the CsCl gradient) stained with uranyl acetate
[2] = biological target: PorN (Porphyromonas gingivalis W50 (endogenous in W50ABK*WbaP)); test: as above
[3] = biological target: PorK lipoprotein (Porphyromonas gingivalis W50 (endogenous in W50ABK*WbaP)); test: high sensitivity amino acid analysis of the bands; purified PorK/N complex separated on SDS-PAGE, transferred to PVDF, PorK and PorN bands excised
[4] = biological target: PorK lipoprotein (Porphyromonas gingivalis W50 (endogenous in W50ABK*WbaP)); test: densitometry of Coomassie stained gels; purified PorK/N complex on SDS-PAGE; PorK band against the combined PorN bands

Substance | stoichiometry N [1] [subunits] | stoichiometry N [2] [subunits] | stoichiometry N (PorN per PorK) [3] | stoichiometry N (PorN per PorK) [4]
PorK lipoprotein (natural protein) | 32 to 36 | – | – | –
PorN (natural protein) | – | 32 to 36 | 1.2 | 1 and 1.2
